Data on one molecule can be found in patent US6348573B1, “Compositions and methods for identifying apoptosis signaling pathway inhibitors and activators” (The Regents of the University of Michigan, priority 1998, dated 2002).

In experiment [1] the target is T1, caspase-9, Flag-tagged (pcDNA3-caspase-9-Flag) (UniProt P55211 1-416).
T1 construct: not shown: Flag tag
T1 sequence (looked up): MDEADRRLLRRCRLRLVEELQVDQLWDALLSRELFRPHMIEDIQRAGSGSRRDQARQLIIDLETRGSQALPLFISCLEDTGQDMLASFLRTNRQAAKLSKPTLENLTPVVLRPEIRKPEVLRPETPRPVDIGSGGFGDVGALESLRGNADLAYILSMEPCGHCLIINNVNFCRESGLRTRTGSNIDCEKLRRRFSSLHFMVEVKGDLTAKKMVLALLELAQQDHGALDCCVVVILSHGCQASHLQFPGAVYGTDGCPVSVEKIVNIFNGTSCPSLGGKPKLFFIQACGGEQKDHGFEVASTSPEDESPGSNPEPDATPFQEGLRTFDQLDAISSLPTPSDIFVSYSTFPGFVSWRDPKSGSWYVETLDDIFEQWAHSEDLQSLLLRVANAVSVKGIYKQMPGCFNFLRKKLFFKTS
The experiment in a line: co-immunoprecipitation from co-transfected 293T cells, immunoblot.

Experiment [2] deals with FADD, RAIDD, Bcl-XL, and c-IAP-2. The experiment in a line: Association of ARC with other apoptosis regulatory molecules. It counts as binding. To be noted: data not shown. As for the experimental part:
(§1) Briefly, 2 μg of pcDNA3 or pcDNA3-ARC-Flag or -HA was co-transfected with 3 μg of pcDNA3 or caspase expression plasmids. Total amount of transfected plasmid DNA was always 5 μg. 293T cells were harvested after 22 hr and lysed with 0.2% NP-40 isotonic lysis buffer [Z. N. Oltvai et al., Cell 74:609-619 (1993)]. For immunoprecipitation, […] of soluble protein was incubated with 10 μg/ml of polyclonal anti-Flag, monoclonal anti-AU1 or polyclonal anti-HA antibody for 2 hr at 4° C. and tagged proteins were immunoprecipitated with Protein A-Sepharose 4B (Zymed Laboratories Inc., San Francisco, Calif.). Immunoprecipitates were subjected to 12% SDS-polyacrylamide electrophoresis and immunoblotted with anti-Flag, anti-AU1 or anti-HA antibodies.

A further experiment deals with T2, caspase-9 (Homo sapiens, UniProt P55211).
T2 construct: expressed in transfected cells; host or cells: human 293T cells
T2 sequence (P55211 1-416): T1 sequence (looked up)
The experiment in a line: Co-immunoprecipitation of ARC with caspase-9. The experiment is classed as binding. To be noted: 293T lysates. As for the experimental part:
as §1

A further experiment has as its target c-IAP-2 (UniProt Q13489 1-604). The experiment in a line: co-immunoprecipitation from co-transfected 293T cells (data not shown).
The next experiment has as its target Bcl-XL (UniProt Q07817 1-233). The experiment is described as above.
Experiment [3] has as its target T3, FADD (Fas-associated death domain protein), expressed in 293T cells (human, UniProt Q13158 1-208).
T3 construct: also called MORT-1; pcDNA3-FADD-AU1
T3 sequence (looked up): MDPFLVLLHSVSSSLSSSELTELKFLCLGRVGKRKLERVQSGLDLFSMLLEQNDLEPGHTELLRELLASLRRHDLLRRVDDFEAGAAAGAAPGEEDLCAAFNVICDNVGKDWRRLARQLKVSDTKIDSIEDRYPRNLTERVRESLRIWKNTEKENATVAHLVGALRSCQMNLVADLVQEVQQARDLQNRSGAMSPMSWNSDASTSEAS
Described as above.

The next experiment deals with T4, caspase-8 (Homo sapiens, UniProt Q14790).
T4 construct: expressed in transfected cells; host or cells: human 293T cells
The experiment in a line: Caspase-8 enzymatic assay (DEVD-AMC) on immunoprecipitates of ARC co-transfected cells. It counts as biochemical. To be noted: immunoprecipitated caspase-8 from 293T cells, fluorogenic substrate DEVD-AMC. On the procedure: [293T cell were co-transfected with pcDNA3-caspase-8-AU1 or pcDNA3-caspase-8-mut and pcDNA3-ARC-Flag or pcDNA3]. Caspase-8 in cell extracts was immunoprecipitated with anti-AU1 antibody and immunoprecipitates were incubated with the fluorogenic substrate DEVD-AMC. ◯:pcDNA3 alone; ●:pcDNA3-ARC-HA alone; □:pcDNA3-caspase-8-AU1 alone; ▪:pcDNA3-caspase-8-AU1 and pcDNA3-ARC-HA; ^Δ:pcDNA3-caspase-8-mt-AU1 alone.
β-galactosidase apoptosis assay and Caspase-8 enzymatic assay: 5×10^5 293T cells were transfected with 0.3 μg of pcDNA3-β-gal plus each expression plasmid in triplicate. Cells were fixed 16 hrs after transfection, stained for β-galactosidase and assayed for morphological features of apoptosis [M. Muira et al., Cell 75:653-660 (1993)]. Statistical significance was determined by one-way ANOVA followed by Student-Neuman-Keuls post-doc comparisons. For caspase-8 enzymatic assay, 1.5×10^6 human 293T cells were co-transfected with pcDNA3, pcDNA3-ARC-Flag, pcDNA3-caspase-8 and pcDNA3-caspase-8-mt by a calcium phosphate method. Total amount of transfected plasmid DNA was always 2.5 μg. 293T cells were harvested 18hr after transfection and lysed with 0.2% NP-40 isotonic lysis buffer. Tagged proteins were immunoprecipitated and caspase activity was measured as described [N. Inohara et al., Proc. Natl. Acad. Sci. USA 94:10717-10722 (1997)].

Another experiment deals with T5, CED-3 (Caenorhabditis elegans, UniProt P42573).
T5 construct: expressed in transfected cells; host or cells: human 293T cells
T5 sequence (P42573 222-503): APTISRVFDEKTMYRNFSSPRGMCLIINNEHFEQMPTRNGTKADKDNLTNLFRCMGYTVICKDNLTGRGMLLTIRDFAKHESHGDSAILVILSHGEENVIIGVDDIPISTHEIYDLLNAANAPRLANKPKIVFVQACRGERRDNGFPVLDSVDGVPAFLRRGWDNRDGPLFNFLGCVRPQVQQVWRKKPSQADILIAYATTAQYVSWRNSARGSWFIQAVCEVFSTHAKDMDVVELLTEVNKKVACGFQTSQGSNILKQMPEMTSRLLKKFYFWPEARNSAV
The experiment in a line: Co-immunoprecipitation of ARC with CED-3. The experiment is classed as binding, C. elegans. To be noted: 293T lysates. As for the experimental part:
as §1

The target of a further experiment is T6, caspase-1 (Homo sapiens, UniProt P29466).
T6 construct: expressed in transfected cells; host or cells: human 293T cells
T6 sequence (P29466 120-404): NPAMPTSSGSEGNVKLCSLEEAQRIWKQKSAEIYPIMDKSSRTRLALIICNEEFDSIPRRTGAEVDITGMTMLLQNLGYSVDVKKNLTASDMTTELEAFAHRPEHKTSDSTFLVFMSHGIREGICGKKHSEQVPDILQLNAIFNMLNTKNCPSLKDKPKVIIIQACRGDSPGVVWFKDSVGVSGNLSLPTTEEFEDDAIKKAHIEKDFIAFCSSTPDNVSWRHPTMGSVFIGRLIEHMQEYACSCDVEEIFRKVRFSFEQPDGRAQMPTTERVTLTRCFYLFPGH
The experiment is described as follows: Co-immunoprecipitation of ARC with caspase-1. It counts as binding. To be noted: 293T lysates. As for the experimental part: as §1

c-IAP-2, sequence (Q13489 whole entry): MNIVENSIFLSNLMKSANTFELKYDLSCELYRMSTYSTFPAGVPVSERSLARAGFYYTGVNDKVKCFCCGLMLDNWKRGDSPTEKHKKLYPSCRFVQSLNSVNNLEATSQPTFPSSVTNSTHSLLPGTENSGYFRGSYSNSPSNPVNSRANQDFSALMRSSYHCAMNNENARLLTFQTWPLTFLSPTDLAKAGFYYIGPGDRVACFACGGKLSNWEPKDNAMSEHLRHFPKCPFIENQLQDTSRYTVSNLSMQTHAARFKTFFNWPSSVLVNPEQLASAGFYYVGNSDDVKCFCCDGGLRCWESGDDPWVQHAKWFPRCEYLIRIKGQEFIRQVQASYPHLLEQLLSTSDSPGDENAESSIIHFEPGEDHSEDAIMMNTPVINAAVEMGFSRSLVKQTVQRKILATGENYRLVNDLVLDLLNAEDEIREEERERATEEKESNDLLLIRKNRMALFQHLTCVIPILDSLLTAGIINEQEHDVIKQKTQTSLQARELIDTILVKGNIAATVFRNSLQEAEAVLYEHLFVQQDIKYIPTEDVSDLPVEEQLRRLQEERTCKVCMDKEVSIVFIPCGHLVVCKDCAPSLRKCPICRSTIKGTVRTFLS
T4 sequence (Q14790 1-496 isoform Q14790-4): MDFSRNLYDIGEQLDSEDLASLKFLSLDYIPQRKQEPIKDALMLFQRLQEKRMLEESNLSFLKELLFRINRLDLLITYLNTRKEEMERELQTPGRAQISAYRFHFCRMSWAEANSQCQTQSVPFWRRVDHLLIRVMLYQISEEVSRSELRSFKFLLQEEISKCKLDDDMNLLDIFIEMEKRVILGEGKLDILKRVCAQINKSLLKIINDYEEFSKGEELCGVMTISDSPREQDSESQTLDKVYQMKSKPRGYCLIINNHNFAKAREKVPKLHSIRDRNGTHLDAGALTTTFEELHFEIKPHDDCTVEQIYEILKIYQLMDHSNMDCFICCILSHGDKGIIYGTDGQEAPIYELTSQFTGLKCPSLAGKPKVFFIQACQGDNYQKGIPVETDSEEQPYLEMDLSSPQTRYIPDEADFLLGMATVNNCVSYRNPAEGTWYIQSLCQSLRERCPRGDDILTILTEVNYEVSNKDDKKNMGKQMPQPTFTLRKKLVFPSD
Bcl-XL, sequence (Q07817 whole entry, the tested form may be a part): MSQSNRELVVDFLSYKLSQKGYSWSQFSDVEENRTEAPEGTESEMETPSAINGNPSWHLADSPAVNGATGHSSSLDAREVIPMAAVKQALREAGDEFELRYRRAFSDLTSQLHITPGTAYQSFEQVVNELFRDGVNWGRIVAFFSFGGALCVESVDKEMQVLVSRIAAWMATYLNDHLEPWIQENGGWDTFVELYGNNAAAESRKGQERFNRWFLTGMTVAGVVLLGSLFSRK

B1: human ARC (Apoptosis Repressor with CARD domain), C-terminally Flag- or HA-tagged (other)
chain: MGNAQERPSETIDRERKRLVETLQADSGLLLDALLARGVLTGPEYEALDALPDAERRVRRLLLLVQGKGEAACQELLRCAQRTAGAPDPAWDWQHVGPGYRDRSYDPPCPGHWTPEAPGSGTTCPGLPRASDPDEAGGPEGSEAVQSGTPEEPEPELEAEASKEAEPEPEPEPELEPEAEAEPEPELEPEPDPEPEPDFEERDESEDS
notes: Entire open reading frame expressed in 293T cells; The two tagged constructs are merged here; also called ARC-Flag; ARC-HA; not shown: C-terminal FLAG or HA tag
Consider B1, for which the binding result (in experiment [1]; with c-IAP-2; with Bcl-XL; in experiment [3]) was “no binding” each time. In addition, the “association with FADD, RAIDD, Bcl-XL, and c-IAP-2” value in experiment [2] is “did not associate”. Besides, the “co-immunoprecipitation with caspase-9” value in the experiment with caspase-9 is reported as “not”. Besides, in the experiment with caspase-8, the “enzymatic activity of caspase-8” value was “inhibited”. Besides, the “co-immunoprecipitation with CED-3” value with CED-3 is “co-immunoprecipitated”. For the same molecule, the “co-immunoprecipitation with caspase-1” value in the experiment with caspase-1 is listed as “not”.
